Results as given in patent US12180473B2, “Chimeric RNA-driven genomic rearrangement in mammalian cells” (priority 2018, dated 2024).

Key:
TMPRSS2-ERG fusion [1] = format: cell-based, human
Procedure: (§1) DHT was added at the final concentration of 0.9 μM six hours post transfection. Following overnight incubation, cells were then treated with 4 μg/ml α-amanitin for various time periods (0, 2, 6, 12 and 24 hours). Cells were then revived in fresh medium containing 0.9 μM DHT without α-amanitin and RT-PCR was performed for either TMPRSS2-ERG or TMPRSS2-ETV1 fusion.

TMPRSS2-ETV1 fusion [2] = format: cell-based, human
Procedure: as §1

TMPRSS2-ERG fusion [3] = experiment: RT-PCR detection of induced endogenous TMPRSS2-ERG fusion transcript in LNCaP cells expressing input RNA; details: LNCaP cells transfected with input RNA plasmid, DHT for 3 days
BCR-KCNQ2 fusion [4] = experiment: Nested RT-PCR of induced BCR-KCNQ2 fusion transcript in HL-60 cells; format: cell-based, human
Description: FIGS. 41A-41D. RNA-mediated inter-chromosomal BCR-KCNQ2 fusion in HL-60 cells by designed chimeric RNA. FIG. 41A. The design of chimeric RNA is based on the three-way junction that could be formed between genomic DNA (in the stem) and chimeric RNA (perpendicular and below the stem). The three-way junction consists of an RNA/DNA hybrid and a genomic DNA stem (black) between the parental genes (BCR and KCNQ2). The sense genomic strand of BCR gene is on the positive strand of chromosome 22 while that of KCNQ2 is on the negative strand of chromosome 20. Short lines in gray regions represent base pairings. FIG. 41B. […] This chimeric RNA target intron regions and has GC content of 55.4%. The fusion RNA transcribed from the induced fusion gene contains an annotated splice junction. In this case, two different fusion RNAs were confirmed based on the results derived from the Sanger sequencing data. FIG. 41B discloses the BCR targeting sequence as SEQ ID NO: 242, the KCNQ2 targeting sequence as SEQ ID NO: 243, and the chimeric sequence as SEQ ID NO: 244. FIG. 41C. Two BCR-KCNQ2 fusion transcript variants were induced in HL-60 cells by chimeric RNA targeting BCR and KCNQ2 genes in the genome without hormone or other stimuli. FIG. 41D. Schematic of induced BCR-KCNQ2 fusion transcripts derived from the Sanger sequencing data. […]

JAZF1-SUZ12 fusion = experiment: Nested RT-PCR of induced JAZF1-SUZ12 fusion transcript in 293T cells; format: cell-based, human
Description: FIGS. 39A-39D. RNA-mediated inter-chromosomal JAZF1-SUZ12 fusion in 293T cells. FIG. 39A. The design of chimeric RNA is based on the three-way junction that could be formed between genomic DNA (in the stem) and chimeric RNA (perpendicular and below the stem). The three-way junction comprises an RNA/DNA hybrid and a genomic DNA stem between the parental genes (JAZF1 and SUZ12). The sense genomic strand of JAZF1 gene is on the negative strand of chromosome 7 while that of SUZ12 is on the positive strand of chromosome 17. Short vertical lines in gray regions between the chromosome and the chimeric RNA represent base pairings. FIG. 39B. […] This chimeric RNA target intron regions and has GC content of 27%. The fusion RNA transcribed from the induced fusion gene contains an annotated splice junction. In this particular case, two different fusion RNAs were confirmed based on the results derived from the Sanger sequencing data. FIG. 39B discloses the JAZF1 targeting sequence as SEQ ID NO: 236, the SUZ12 targeting sequence as SEQ ID NO: 237, and the chimeric sequence as SEQ ID NO: 238. FIG. 39C. Example of inter-chromosomal JAZF1-SUZ12 fusion transcript (arrow) induced by sequence-specific chimeric RNAs in 293T cells without additional hormone or other stimuli. 293T cells were transfected with chimeric RNA expression plasmid. Total RNA was then harvested at day 3. […]

TMPRSS2-ETV1 fusion [5] = experiment: RT-PCR detection of induced TMPRSS2-ETV1 fusion transcript in LNCaP cells; format: cell-based, human; details: LNCaP, two-round nested PCR
Procedure: • 1st Round: Top down PCR with TMPRSS2 ex-1 F1 and ETV1 ex-6 R1 • Denaturation 94° C., 30 sec • Annealing * , 45 sec • Extension 72° C., 60 sec
The Denaturation, Annealing and Extension steps were performed 2 cycles. • 2 cycles at each temperature: 62° C., 61° C., 60° C. . . .
Long Range PCR for Detecting Genomic DNA Fusion Junction

BCR-KCNQ2 fusion [6] = experiment: Nested RT-PCR of induced BCR-KCNQ2 fusion transcript in 293T cells; format: cell-based, human; details: for induction of BCR-KCNQ2 fusion: 293T, 3 days
Description: FIGS. 42A-42E. BCR-KCNQ2 fusion induced in 293T cells by chimeric RNAs utilizing/excluding the SINE element for three-way junction formation. FIG. 42A. Examples of chimeric RNA design using Short Interspersed Nuclear Element (SINE) commonly present in the human genome. The designed chimeric RNA forge a three-way junction that could be formed between two SINEs in genomic DNA (in the stem) and chimeric RNA (perpendicular and below the stem). Genomic DNA stems formed by DNA repeats such as SINE/SINE repeats may constitute stems over 300 nts in length. Short lines in gray regions represent base pairings. SINEs are in crimson. FIG. 42B. […] This chimeric RNA has GC content of 52%. FIG. 42B discloses the BCR targeting sequence as SEQ ID NO: 245, the KCNQ2 targeting sequence as SEQ ID NO: 246, and the chimeric sequence as SEQ ID NO: 247. FIG. 42C. Examples of chimeric RNA design targeting DNA sequences of BCR and KCNQ2 genes in the genome which form genomic stems using regions outside of known DNA repeats such as Short Interspersed Nuclear Element (SINE). SINEs are commonly present in the human genome are shown in solid boxes. The DNA stem could range from 10 bp to >100 bp with some mismatches. FIG. 42D. […] This chimeric RNA target intron regions and has GC content of 60.4%. FIG. 42D discloses the BCR targeting sequence as SEQ ID NO: 248, the KCNQ2 targeting sequence as SEQ ID NO: 249, and the chimeric sequence as SEQ ID NO: 250. FIG. 42E. BCR-KCNQ2 fusion can be induced by chimeric RNAs that form 3-way junction with genomic stems using SINE repeats (Set1A) or outside of SINE repeats (Set1B). 293T cells were transfected with chimeric RNA expression plasmid for 3 days and then harvested for nested RT-PCR.

BCR-RANGAP1 fusion = experiment: Nested RT-PCR of induced BCR-RANGAP1 fusion transcript in 293T cells; format: cell-based, human
Description: FIGS. 40A-40C. RNA-mediated intra-chromosomal BCR-RANGAP1 fusion in 293T cells by designed chimeric RNA. FIG. 40A. The design of chimeric RNA is based on the three-way junction that could be formed between genomic DNA (in the stem) and chimeric RNA (perpendicular and below the stem). The three-way junction consists of an RNA/DNA hybrid and a genomic DNA stem between the parental genes (BCR and RANGAP1). The sense genomic strand of BCR gene is on the positive strand of chromosome 22 while that of RANGAP1 is on the negative strand of chromosome 22, separated by 18 Mb. Short lines in gray regions represent base pairings. FIG. 40B. […] This chimeric RNA target intron regions and has GC content of 48.4%. The fusion RNA transcribed from the induced fusion gene contains an annotated splice junction. FIG. 40B discloses the BCR targeting sequence as SEQ ID NO: 239, the RANGAP1 targeting sequence as SEQ ID NO: 240, and the chimeric sequence as SEQ ID NO: 241. FIG. 40C. Intra-chromosomal BCR-RANGAP1 fusion transcript (arrow) induced by sequence-specific chimeric RNA in 293T cells without additional hormone or other stimuli. 293T cells were transfected with chimeric RNA expression plasmid. Total RNA was then harvested at day 3. Nested RT-PCR using specific primer pairs were used to detect the induced fusion transcript. […]

[7] = LNCaP, 4 μg/ml α-amanitin, 0.9 μM DHT
[8] = 293T, day 3, without hormone or other stimuli

CC[C@H](C)[C@@H]1NC(=O)CNC(=O)[C@@H]2Cc3c([nH]c4cc(O)ccc34)[S+]([O-])C[C@@H](NC(=O)CNC1=O)C(=O)N[C@@H](CC(N)=O)C(=O)N1C[C@H](O)C[C@H]1C(=O)N[C@@H]([C@@H](C)[C@@H](O)CO)C(=O)N2 (stereo in doubt) [α-amanitin, reference compound]
effect of α-amanitin treatment on TMPRSS2-ERG induction by antisense input RNA (TMPRSS2-ERG fusion [1]; lane 1 vs. 5): reduced the induction by antisense input RNAs
effect of α-amanitin treatment on TMPRSS2-ETV1 induction by antisense input RNA (TMPRSS2-ETV1 fusion [2]; lane 11 vs. 15): reduced the induction by antisense input RNAs

B1: Sense-5: input RNA, SEQ ID NO: 29 (nucleic acid)
sense: TGTGCTCGCTTCGGCAGCACATATACTAACATTGGAACGATCCTGCAGGAGTAGGCGCGAGCTTCCATCTCTCACTCCTGTCTGGCGGAGGGCGAGGGGCGGGGAGCGCCGCCTGGAGCGCGGCAGGTGAGCGGCGGATTGGCTGTCTCAACCCCCAGCCAGGGTCACCATCAAAATGGAATGTAACCCTAGCCAGGTGAATGGCTCAAG
α-amanitin treatment time after which sense input RNA began to induce TMPRSS2-ERG (TMPRSS2-ERG fusion [1]; [7]): 12 h
induction of endogenous TMPRSS2-ERG fusion transcript (RT-PCR) (TMPRSS2-ERG fusion [3]): fails to induce TMPRSS2-ERG gene fusion

B2: S4 30-2: chimeric RNA, BCR-KCNQ2, GC content 55.4% (nucleic acid)
chain: GAGATCGAGACCATCCTGGCTAACGCAGTGAAACCCCGTCTCTACATTACCAGCCTTCACTGTTCTGACAGCTCCAGTAGCTGGGGGAGACC
modifications: listed as DNA, further chemistry not given here
induction of BCR-KCNQ2 fusion (BCR-KCNQ2 fusion [4]; HL-60, nucleofection, day 7): induce BCR-KCNQ2 fusion
Cell line(s) identified (BCR-KCNQ2 fusion [4]; fusion gene partners BCR-KCNQ2, HL-60): HL-60

B3: JS-8: chimeric RNA, JAZF1-SUZ12, GC content 27% (nucleic acid)
chain: TCAACAAAAGAACTATTGATTGATGCCAAACAAGATGAAAATTTCACTTTGCGTATTAGTTACCAAAGGTTTATTTATGTTTCTGTAATGCATATTTATA
modifications: chimeric RNA, chemistry not given here
induction of JAZF1-SUZ12 fusion (JAZF1-SUZ12 fusion; [8]): induce JAZF1-SUZ12 fusion
Cell line(s) identified (JAZF1-SUZ12 fusion; fusion gene partners JAZF1-SUZ12): 293T

B4: Sense-TMPRSS2-ETV1-A1: input RNA, SEQ ID NO: 42 (nucleic acid)
sense: TGTGCTCGCTTCGGCAGCACATATACTAACATTGGAACGATCCTGCAGCCAGTTGGTGGAAGAGAGTCCCCCGGGGTCCCCAAAGCTGGCTCCTAGTCTACTGAATCTAACTAAGACTTTAACTTGGAACGATTTACATAATGCGGCA
induction of TMPRSS2-ETV1 fusion transcript (RT-PCR) (TMPRSS2-ETV1 fusion [5]): failed to induce fusion transcript
α-amanitin treatment time after which sense input RNA began to induce TMPRSS2-ETV1 fusion (TMPRSS2-ETV1 fusion [2]; [7]): 24 h

B5: SEQ ID NO: 247: chimeric RNA utilizing the SINE element to induce BCR-KCNQ2 fusion, GC content 52% (S1A 200-1 or S1A 200-2) (nucleic acid)
chain: AGCAGGGGGGGCGGTGTCCACACATCCTCACTACGCTGATTTGCCATTTGACTTACACAGTGCAACTCATGTGTTACCAGCCTTCACTGTTCTGACAGCT
modifications: listed as DNA, further chemistry not given here
induction of BCR-KCNQ2 fusion (BCR-KCNQ2 fusion [6]): induce BCR-KCNQ2 fusion

B6: S1-7: chimeric RNA, BCR-RANGAP1, GC content 48.4% (nucleic acid)
chain: AGAATATGTGTAATTGTGTTACCAGCCTTCACTGTTCTGACAGCTCCAGTAGCTGGGGGAGACC
modifications: chimeric RNA, chemistry not given here
induction of BCR-RANGAP1 fusion (BCR-RANGAP1 fusion; [8]): induce BCR-RANGAP1 fusion
Cell line(s) identified (BCR-RANGAP1 fusion; fusion gene partners BCR-RANGAP1): 293T

B7: S1B 10-8: chimeric RNA, BCR-KCNQ2, GC content 60.4% (nucleic acid)
chain: CCAGGTGGAGCTGCCCATGCCTTCCCCGCAGGGCTGAGCCCACTCAGCCGTGAACCAAAGTCCACTAGTCCCATCAAAAGTGCTAACAGGAAGGGGGGATC
modifications: listed as DNA, further chemistry not given here
induction of BCR-KCNQ2 fusion (BCR-KCNQ2 fusion [6]): induce BCR-KCNQ2 fusion in 293T cells
Cell line(s) identified (BCR-KCNQ2 fusion [6]; fusion gene partners BCR-KCNQ2, 293T): 293T
